# Measurements reported in US20230213527A1 (QUANTUM SI, published 2023).
# Tests used:
# Assay in all cases: single-molecule on-chip NAA recognition-only assay; immobilized peptide, dye-labeled recognizer in solution
# [1] = target: peptide with N-terminal VAA (C-terminal azidolysine conjugated to DNA-streptavidin linker)
# Experimental: (§1) The semiconductor chip was placed in the sequencing device and a chip check was performed to test electronic circuit function and to optimize laser coupling alignment. The chip was then removed from the device socket and the chip was washed twice with 50 μL of 70% isopropanol, followed by four washes with 30 μL of wash buffer (50 mM MOPS pH 8.0, 60 mM potassium acetate, 50 mM glucose, 20 mM magnesium acetate, and surfactant mix) through a flow cell attached to the chip. A second chip check was then performed. The laser was then blocked via an integrated software-controlled shutter, peptide complex was added to a final concentration of 1-10 nM and mixed thoroughly, and the chip was incubated for 15 min. The chip was then washed six times with wash buffer, followed by addition of an imaging solution (wash buffer with 5 mM Trolox and an oxygen scavenging system). The laser was unblocked and the occupancy percentage (target 10-30%, Poisson distributed) was recorded by acquiring a photobleaching signal from a fluorophore attached to the peptide complex during 5 min of laser illumination. For NAA recognition-only assays, after peptide loading, labeled recognizer was added to a final concentration of 50 nM PS610, 100 nM PS691, or 250 nM PS961 (as indicated according to the experiment), and data was recorded for 10 hours. For dynamic sequencing assays, after peptide loading, a mixture of labeled recognizers was added to obtain final concentrations of 50 nM PS610, 100 nM PS691, and 250 nM PS961. Data was recorded for 15 min. The laser was then blocked briefly and aminopeptidases were added to the sequencing reaction via the flow cell and mixed thoroughly (final concentration 2-8 μM PhTET2 and/or 20-80 μM PhTET3, as indicated according to the experiment). The laser was then unblocked, and data was recorded for 10 hours. For all runs, 30 μL of mineral oil was added to fluid reservoirs at each port of the flow cell to prevent evaporation during the run.
# [2] = target: peptide with N-terminal LAA (C-terminal azidolysine conjugated to DNA-streptavidin linker)
# Experimental: as §1
# [3] = target: peptide with N-terminal IAA (C-terminal azidolysine conjugated to DNA-streptavidin linker)
# Experimental: as §1
binder,measurement,setting,value
"PS961 (designed binder, also called PS961 (L, I, V); PS961 (LIV)) MPTAASATESAIEDTPAPARPEVDGRTKPKRQPRYHVVLWDDDDHTYQYVVVMLRSLFGHPPSRGYRMAKEMDTQGRVIVLTTTREHAELKRDQIHAFGRDRLLARSKGSMKASIEAEE",median pulse duration (PD),[1],0.21 s
same,median pulse duration (PD),[2],1.21 s
same,median pulse duration (PD),[3],0.28 s
